This is an account of results in US20240132624A1 (Ablynx, published 2024).

For the experiment, the target named is T1, cyno FcRn/b2M (cyno, UniProt Q8SPV9 24-297; Q8SPW0 21-119, biotinylated).
T1 construct: bought recombinant biotinylated protein (Immunitrack ITF05 or ACRO FCM-C82W5); also called cFcRn; cFcRn/cb2M
As to the kind of experiment: SPR off-rate; pH 7.4 vs pH 6.0.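 Note: surface plasmon resonance with diluted periplasmic extracts flowed over ligand surfaces, 120 s association and 600–3600 s dissociation at 25 °C, running buffer containing 150 mM NaCl.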

T1 sequence (Q8SPV9 24-297 limits assumed, chain 1 of 2): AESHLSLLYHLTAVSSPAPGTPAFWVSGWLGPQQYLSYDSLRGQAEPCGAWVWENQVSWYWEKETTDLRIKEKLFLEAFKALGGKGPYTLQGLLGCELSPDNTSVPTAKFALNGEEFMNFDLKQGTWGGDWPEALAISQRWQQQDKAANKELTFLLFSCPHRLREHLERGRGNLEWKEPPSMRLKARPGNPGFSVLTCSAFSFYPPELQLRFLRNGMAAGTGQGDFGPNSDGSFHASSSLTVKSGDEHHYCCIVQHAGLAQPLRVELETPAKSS
T1 sequence (Q8SPW0 21-119 limits assumed, chain 2 of 2): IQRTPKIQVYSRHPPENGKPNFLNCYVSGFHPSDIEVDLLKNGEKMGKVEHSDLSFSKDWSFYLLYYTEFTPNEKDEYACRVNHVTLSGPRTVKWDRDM
Protocol: All kinetic measurements have been performed on ProteOn XPR36 (BioRad Laboratories, Inc.), MASS-2 (Sierra sensors, Gmbh) or SPR-32 (Bruker Corporation). […] The phytip purified periplasmic extracts were diluted 1:10 in running buffer (CPA+150 mM NaCl+0.005% Tw20 at pH 5.5, pH 6.0 or pH 7.4) and injected over the ligand surfaces (association: 120 s at 45 μL/min; dissociation: 600s-3600 s at 45 μL/min). Experiments were carried out at 25° C.

B1: T0263018B11 A33N (VHH, name in Kabat numbering)
VHH: EVQLVESGGGVVQPGGSLRLSCAASGFTFSSYNMYWVRQAPGKGLEWVSAISSGGGSTDYADSVKGRFTISRDNSKNTLYLQMNSLRPEDTALYYCAADTLYTSLTWYSYWGQGTLVTVSS
notes: FLAG3-His6 tagged
Take B1: the “kd ratio pH 7.4/6.0” value stood at 49.

B2: T0263018B11 T57H (VHH, name in Kabat numbering)
VHH: EVQLVESGGGVVQPGGSLRLSCAASGFTFSSYAMYWVRQAPGKGLEWVSAISSGGGSHDYADSVKGRFTISRDNSKNTLYLQMNSLRPEDTALYYCAADTLYTSLTWYSYWGQGTLVTVSS
notes: FLAG3-His6 tagged
Turning to B2, the “kd ratio pH 7.4/6.0” value was determined as 41.

B3: T0263018B11 G54D (VHH, name in Kabat numbering)
VHH: EVQLVESGGGVVQPGGSLRLSCAASGFTFSSYAMYWVRQAPGKGLEWVSAISSGDGSTDYADSVKGRFTISRDNSKNTLYLQMNSLRPEDTALYYCAADTLYTSLTWYSYWGQGTLVTVSS
notes: FLAG3-His6 tagged
With B3, the “kd ratio pH 7.4/6.0” value turned out to be 41.

B4: T0263018B11 F27M (VHH, name in Kabat numbering)
VHH: EVQLVESGGGVVQPGGSLRLSCAASGMTFSSYAMYWVRQAPGKGLEWVSAISSGGGSTDYADSVKGRFTISRDNSKNTLYLQMNSLRPEDTALYYCAADTLYTSLTWYSYWGQGTLVTVSS
notes: FLAG3-His6 tagged
On to B4, for which the “kd ratio pH 7.4/6.0” value is 69.

B5: T0263018B11 S31V (VHH, name in Kabat numbering)
VHH: EVQLVESGGGVVQPGGSLRLSCAASGFTFSVYAMYWVRQAPGKGLEWVSAISSGGGSTDYADSVKGRFTISRDNSKNTLYLQMNSLRPEDTALYYCAADTLYTSLTWYSYWGQGTLVTVSS
notes: FLAG3-His6 tagged
B5: the “kd ratio pH 7.4/6.0” value was found to be 89.

B6: T0263018B11 G26K (VHH, name in Kabat numbering)
VHH: EVQLVESGGGVVQPGGSLRLSCAASKFTFSSYAMYWVRQAPGKGLEWVSAISSGGGSTDYADSVKGRFTISRDNSKNTLYLQMNSLRPEDTALYYCAADTLYTSLTWYSYWGQGTLVTVSS
notes: FLAG3-His6 tagged
On to B6, for which the “kd ratio pH 7.4/6.0” value turned out to be 101.

B7: T0263018B11 S56G (VHH, name in Kabat numbering)
VHH: EVQLVESGGGVVQPGGSLRLSCAASGFTFSSYAMYWVRQAPGKGLEWVSAISSGGGGTDYADSVKGRFTISRDNSKNTLYLQMNSLRPEDTALYYCAADTLYTSLTWYSYWGQGTLVTVSS
notes: FLAG3-His6 tagged
Take B7: the “kd ratio pH 7.4/6.0” value worked out at 54.

B8: T0263018B11 S31A (VHH, name in Kabat numbering)
VHH: EVQLVESGGGVVQPGGSLRLSCAASGFTFSAYAMYWVRQAPGKGLEWVSAISSGGGSTDYADSVKGRFTISRDNSKNTLYLQMNSLRPEDTALYYCAADTLYTSLTWYSYWGQGTLVTVSS
notes: FLAG3-His6 tagged
Turning to B8, the “kd ratio pH 7.4/6.0” value worked out at 61.

B9: T0263018B11 G26A (VHH, name in Kabat numbering)
VHH: EVQLVESGGGVVQPGGSLRLSCAASAFTFSSYAMYWVRQAPGKGLEWVSAISSGGGSTDYADSVKGRFTISRDNSKNTLYLQMNSLRPEDTALYYCAADTLYTSLTWYSYWGQGTLVTVSS
notes: FLAG3-His6 tagged
As to B9, the “kd ratio pH 7.4/6.0” value stood at 116.

B10: T0263018B11 S100L (VHH, name in Kabat numbering)
VHH: EVQLVESGGGVVQPGGSLRLSCAASGFTFSSYAMYWVRQAPGKGLEWVSAISSGGGSTDYADSVKGRFTISRDNSKNTLYLQMNSLRPEDTALYYCAADTLYTLLTWYSYWGQGTLVTVSS
notes: FLAG3-His6 tagged
Turning to B10, the “kd ratio pH 7.4/6.0” value was found to be 62.

B11: T0263018B11 T28M (VHH, name in Kabat numbering)
VHH: EVQLVESGGGVVQPGGSLRLSCAASGFMFSSYAMYWVRQAPGKGLEWVSAISSGGGSTDYADSVKGRFTISRDNSKNTLYLQMNSLRPEDTALYYCAADTLYTSLTWYSYWGQGTLVTVSS
notes: FLAG3-His6 tagged
As to B11, the “kd ratio pH 7.4/6.0” value was determined as 64.

B12: T0263018B11 T57K (VHH, name in Kabat numbering)
VHH: EVQLVESGGGVVQPGGSLRLSCAASGFTFSSYAMYWVRQAPGKGLEWVSAISSGGGSKDYADSVKGRFTISRDNSKNTLYLQMNSLRPEDTALYYCAADTLYTSLTWYSYWGQGTLVTVSS
notes: FLAG3-His6 tagged
Regarding B12, the “kd ratio pH 7.4/6.0” value was 40.

B13: T0263018B11 L100aV (VHH, name in Kabat numbering)
VHH: EVQLVESGGGVVQPGGSLRLSCAASGFTFSSYAMYWVRQAPGKGLEWVSAISSGGGSTDYADSVKGRFTISRDNSKNTLYLQMNSLRPEDTALYYCAADTLYTSVTWYSYWGQGTLVTVSS
notes: FLAG3-His6 tagged
Regarding B13, the “kd ratio pH 7.4/6.0” value was 39.

B14: T0263018B11 G54T (VHH, name in Kabat numbering)
VHH: EVQLVESGGGVVQPGGSLRLSCAASGFTFSSYAMYWVRQAPGKGLEWVSAISSGTGSTDYADSVKGRFTISRDNSKNTLYLQMNSLRPEDTALYYCAADTLYTSLTWYSYWGQGTLVTVSS
notes: FLAG3-His6 tagged
For B14, the “kd ratio pH 7.4/6.0” value worked out at 35.

B15: T0263018B11 D58S (VHH, name in Kabat numbering)
VHH: EVQLVESGGGVVQPGGSLRLSCAASGFTFSSYAMYWVRQAPGKGLEWVSAISSGGGSTSYADSVKGRFTISRDNSKNTLYLQMNSLRPEDTALYYCAADTLYTSLTWYSYWGQGTLVTVSS
notes: FLAG3-His6 tagged
Consider B15, for which the “kd ratio pH 7.4/6.0” value was 12.

B16: T0263018B11 D58T (VHH, name in Kabat numbering)
VHH: EVQLVESGGGVVQPGGSLRLSCAASGFTFSSYAMYWVRQAPGKGLEWVSAISSGGGSTTYADSVKGRFTISRDNSKNTLYLQMNSLRPEDTALYYCAADTLYTSLTWYSYWGQGTLVTVSS
notes: FLAG3-His6 tagged
B16: the “kd ratio pH 7.4/6.0” value was 10.

B17: T0263018B11 T57Q (VHH, name in Kabat numbering)
VHH: EVQLVESGGGVVQPGGSLRLSCAASGFTFSSYAMYWVRQAPGKGLEWVSAISSGGGSQDYADSVKGRFTISRDNSKNTLYLQMNSLRPEDTALYYCAADTLYTSLTWYSYWGQGTLVTVSS
notes: FLAG3-His6 tagged
As for B17, the “kd ratio pH 7.4/6.0” value came to 34.

B18: T0263018B11 S31G (VHH, name in Kabat numbering)
VHH: EVQLVESGGGVVQPGGSLRLSCAASGFTFSGYAMYWVRQAPGKGLEWVSAISSGGGSTDYADSVKGRFTISRDNSKNTLYLQMNSLRPEDTALYYCAADTLYTSLTWYSYWGQGTLVTVSS
notes: FLAG3-His6 tagged
For the molecule B18, the “kd ratio pH 7.4/6.0” value was determined as 58.

B19: T0263018B11 T57A (VHH, name in Kabat numbering)
VHH: EVQLVESGGGVVQPGGSLRLSCAASGFTFSSYAMYWVRQAPGKGLEWVSAISSGGGSADYADSVKGRFTISRDNSKNTLYLQMNSLRPEDTALYYCAADTLYTSLTWYSYWGQGTLVTVSS
notes: FLAG3-His6 tagged
As to B19, the “kd ratio pH 7.4/6.0” value came to 36.

B20: T0263018B11 G54V (VHH, name in Kabat numbering)
VHH: EVQLVESGGGVVQPGGSLRLSCAASGFTFSSYAMYWVRQAPGKGLEWVSAISSGVGSTDYADSVKGRFTISRDNSKNTLYLQMNSLRPEDTALYYCAADTLYTSLTWYSYWGQGTLVTVSS
notes: FLAG3-His6 tagged
Take B20: the “kd ratio pH 7.4/6.0” value was 31.

B21: T0263018B11 S30P (VHH, name in Kabat numbering)
VHH: EVQLVESGGGVVQPGGSLRLSCAASGFTFPSYAMYWVRQAPGKGLEWVSAISSGGGSTDYADSVKGRFTISRDNSKNTLYLQMNSLRPEDTALYYCAADTLYTSLTWYSYWGQGTLVTVSS
notes: FLAG3-His6 tagged
Consider B21, for which the “kd ratio pH 7.4/6.0” value amounted to 41.

B22: T0263018B11 F29Y (VHH, name in Kabat numbering)
VHH: EVQLVESGGGVVQPGGSLRLSCAASGFTYSSYAMYWVRQAPGKGLEWVSAISSGGGSTDYADSVKGRFTISRDNSKNTLYLQMNSLRPEDTALYYCAADTLYTSLTWYSYWGQGTLVTVSS
notes: FLAG3-His6 tagged
Take B22: the “kd ratio pH 7.4/6.0” value is 45.

B23: T0263018B11 T28S (VHH, name in Kabat numbering)
VHH: EVQLVESGGGVVQPGGSLRLSCAASGFSFSSYAMYWVRQAPGKGLEWVSAISSGGGSTDYADSVKGRFTISRDNSKNTLYLQMNSLRPEDTALYYCAADTLYTSLTWYSYWGQGTLVTVSS
notes: FLAG3-His6 tagged
As for B23, the “kd ratio pH 7.4/6.0” value turned out to be 85.
